Laboratory results reported in the supplement of paper PMC10065799, “High-throughput profiling of sequence recognition by tyrosine kinases and SH2 domains using bacterial peptide display” (eLife, 2023).

Assays:
SHP2-C SH2 = experiment: SH2 binding enrichment of the phosphorylated peptide, bacterial display (enrichment ratio); higher = better substrate or ligand; peptides without Tyr show the background
c-Src SH2 = experiment: as above
Grb2 SH2 = Grb2 SH2 (UniProt P62993); experiment: as above
MERTK = MERTK (UniProt Q12866); experiment: phosphorylation enrichment, bacterial display (enrichment ratio); higher = better substrate or ligand; peptides without Tyr show the background
c-Src = experiment: as above
Jak2 = Jak2 (UniProt O60674); experiment: as above
Hck = Hck (UniProt P08631); experiment: as above
FGFR3 = FGFR3 (UniProt P22607); experiment: as above
Fyn = Fyn (UniProt P06241); experiment: as above
Fes = Fes (UniProt P07332); experiment: as above
Fer (mouse) = experiment: as above
c-Abl (mouse) = experiment: as above
AncSZ = experiment: as above
EPHB1 = EPHB1 (UniProt P54762); experiment: as above
EPHB2 = EPHB2 (UniProt P29323); experiment: as above
FGFR1 = FGFR1 (UniProt P11362); experiment: as above
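Throughout, for SH2 binding enrichment of the phosphorylated peptide, bacterial display: peptide library displayed on the E. coli surface as eCPX fusions, selected cells deep-sequenced, score is each peptide's frequency after selection divided by its frequency in the input.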
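Throughout, for phosphorylation enrichment, bacterial display: 11-residue human phosphosite peptides and single-mutation variants displayed on the E. coli surface, counted by deep sequencing, each peptide's frequency after selection divided by its frequency in the unselected input library; frequency after pTyr selection over input frequency; kinase dosed for 20-30% of maximal phosphorylation in three min.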

Fyn, sequence (P06241 whole entry, looked up): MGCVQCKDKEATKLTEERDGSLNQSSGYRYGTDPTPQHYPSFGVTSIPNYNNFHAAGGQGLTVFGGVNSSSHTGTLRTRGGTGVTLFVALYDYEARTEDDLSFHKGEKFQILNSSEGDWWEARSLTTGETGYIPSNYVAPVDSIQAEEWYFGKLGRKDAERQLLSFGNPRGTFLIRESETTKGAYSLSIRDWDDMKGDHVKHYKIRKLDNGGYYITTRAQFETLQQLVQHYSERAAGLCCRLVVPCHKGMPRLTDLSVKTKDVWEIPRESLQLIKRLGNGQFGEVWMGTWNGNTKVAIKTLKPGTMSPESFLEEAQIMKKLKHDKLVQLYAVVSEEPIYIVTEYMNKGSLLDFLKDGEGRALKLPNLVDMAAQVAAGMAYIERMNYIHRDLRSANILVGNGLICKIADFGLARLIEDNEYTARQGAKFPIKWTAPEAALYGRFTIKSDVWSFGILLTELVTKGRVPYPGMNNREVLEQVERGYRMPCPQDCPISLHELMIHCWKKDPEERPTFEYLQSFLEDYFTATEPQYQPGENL
Fes, sequence (P07332 whole entry, looked up): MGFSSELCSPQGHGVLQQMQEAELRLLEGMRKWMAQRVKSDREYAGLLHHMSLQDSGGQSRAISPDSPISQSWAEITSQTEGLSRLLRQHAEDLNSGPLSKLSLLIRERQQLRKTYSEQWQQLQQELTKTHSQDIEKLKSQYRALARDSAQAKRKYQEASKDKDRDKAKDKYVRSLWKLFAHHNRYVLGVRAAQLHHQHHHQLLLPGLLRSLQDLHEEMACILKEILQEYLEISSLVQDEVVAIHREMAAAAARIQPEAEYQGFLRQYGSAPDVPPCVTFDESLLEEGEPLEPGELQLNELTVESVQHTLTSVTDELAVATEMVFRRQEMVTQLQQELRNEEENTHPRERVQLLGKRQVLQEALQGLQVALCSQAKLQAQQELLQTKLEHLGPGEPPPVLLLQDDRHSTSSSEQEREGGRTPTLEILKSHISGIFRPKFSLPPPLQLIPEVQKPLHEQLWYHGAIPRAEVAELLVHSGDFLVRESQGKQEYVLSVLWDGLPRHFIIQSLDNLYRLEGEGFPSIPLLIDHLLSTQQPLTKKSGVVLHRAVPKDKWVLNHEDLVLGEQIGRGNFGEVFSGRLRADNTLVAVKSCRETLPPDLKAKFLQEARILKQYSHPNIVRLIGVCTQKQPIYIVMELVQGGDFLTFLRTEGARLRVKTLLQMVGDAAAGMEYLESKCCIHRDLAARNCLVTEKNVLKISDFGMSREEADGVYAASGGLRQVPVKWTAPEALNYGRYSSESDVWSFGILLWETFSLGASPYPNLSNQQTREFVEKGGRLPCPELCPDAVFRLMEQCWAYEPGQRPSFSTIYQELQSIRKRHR
MERTK, sequence (Q12866 whole entry, looked up): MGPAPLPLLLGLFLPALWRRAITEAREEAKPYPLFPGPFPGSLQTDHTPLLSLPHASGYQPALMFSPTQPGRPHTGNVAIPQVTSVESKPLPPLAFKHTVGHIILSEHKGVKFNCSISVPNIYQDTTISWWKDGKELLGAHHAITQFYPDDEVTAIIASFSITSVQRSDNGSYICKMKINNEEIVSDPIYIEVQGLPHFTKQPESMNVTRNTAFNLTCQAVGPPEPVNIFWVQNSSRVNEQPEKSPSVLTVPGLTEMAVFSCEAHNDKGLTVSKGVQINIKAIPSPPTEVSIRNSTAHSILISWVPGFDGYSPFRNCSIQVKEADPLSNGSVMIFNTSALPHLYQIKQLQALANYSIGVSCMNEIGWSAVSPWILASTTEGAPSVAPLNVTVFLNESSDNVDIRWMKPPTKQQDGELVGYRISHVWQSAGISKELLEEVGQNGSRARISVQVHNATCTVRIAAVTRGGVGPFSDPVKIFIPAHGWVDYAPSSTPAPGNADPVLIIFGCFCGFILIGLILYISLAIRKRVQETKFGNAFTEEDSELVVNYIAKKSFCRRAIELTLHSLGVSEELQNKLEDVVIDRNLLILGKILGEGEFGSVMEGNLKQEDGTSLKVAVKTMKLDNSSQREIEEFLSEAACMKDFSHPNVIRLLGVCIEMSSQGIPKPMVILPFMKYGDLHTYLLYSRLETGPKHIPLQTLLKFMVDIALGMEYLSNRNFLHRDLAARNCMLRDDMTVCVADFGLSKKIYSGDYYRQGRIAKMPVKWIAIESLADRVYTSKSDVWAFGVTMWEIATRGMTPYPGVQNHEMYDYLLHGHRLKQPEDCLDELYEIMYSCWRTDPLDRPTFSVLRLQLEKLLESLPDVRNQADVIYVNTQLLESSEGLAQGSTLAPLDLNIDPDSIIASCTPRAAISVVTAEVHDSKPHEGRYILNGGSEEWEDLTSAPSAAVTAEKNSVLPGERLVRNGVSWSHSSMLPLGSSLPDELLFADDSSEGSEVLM
Hck, sequence (P08631 whole entry, looked up): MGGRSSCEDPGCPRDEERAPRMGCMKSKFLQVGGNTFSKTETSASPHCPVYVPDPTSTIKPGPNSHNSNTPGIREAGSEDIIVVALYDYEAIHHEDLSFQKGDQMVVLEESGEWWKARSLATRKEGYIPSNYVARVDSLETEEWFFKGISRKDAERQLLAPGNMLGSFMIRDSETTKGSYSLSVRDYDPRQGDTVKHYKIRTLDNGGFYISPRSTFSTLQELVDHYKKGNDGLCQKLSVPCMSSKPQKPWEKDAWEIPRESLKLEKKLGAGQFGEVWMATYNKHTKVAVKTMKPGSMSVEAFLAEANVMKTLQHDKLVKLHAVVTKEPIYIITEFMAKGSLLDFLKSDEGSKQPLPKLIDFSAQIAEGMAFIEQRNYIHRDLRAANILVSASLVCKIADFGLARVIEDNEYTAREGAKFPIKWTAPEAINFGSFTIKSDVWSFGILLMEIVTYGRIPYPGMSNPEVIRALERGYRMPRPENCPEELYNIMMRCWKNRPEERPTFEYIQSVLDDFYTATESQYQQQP
FGFR3, sequence (P22607 whole entry, looked up): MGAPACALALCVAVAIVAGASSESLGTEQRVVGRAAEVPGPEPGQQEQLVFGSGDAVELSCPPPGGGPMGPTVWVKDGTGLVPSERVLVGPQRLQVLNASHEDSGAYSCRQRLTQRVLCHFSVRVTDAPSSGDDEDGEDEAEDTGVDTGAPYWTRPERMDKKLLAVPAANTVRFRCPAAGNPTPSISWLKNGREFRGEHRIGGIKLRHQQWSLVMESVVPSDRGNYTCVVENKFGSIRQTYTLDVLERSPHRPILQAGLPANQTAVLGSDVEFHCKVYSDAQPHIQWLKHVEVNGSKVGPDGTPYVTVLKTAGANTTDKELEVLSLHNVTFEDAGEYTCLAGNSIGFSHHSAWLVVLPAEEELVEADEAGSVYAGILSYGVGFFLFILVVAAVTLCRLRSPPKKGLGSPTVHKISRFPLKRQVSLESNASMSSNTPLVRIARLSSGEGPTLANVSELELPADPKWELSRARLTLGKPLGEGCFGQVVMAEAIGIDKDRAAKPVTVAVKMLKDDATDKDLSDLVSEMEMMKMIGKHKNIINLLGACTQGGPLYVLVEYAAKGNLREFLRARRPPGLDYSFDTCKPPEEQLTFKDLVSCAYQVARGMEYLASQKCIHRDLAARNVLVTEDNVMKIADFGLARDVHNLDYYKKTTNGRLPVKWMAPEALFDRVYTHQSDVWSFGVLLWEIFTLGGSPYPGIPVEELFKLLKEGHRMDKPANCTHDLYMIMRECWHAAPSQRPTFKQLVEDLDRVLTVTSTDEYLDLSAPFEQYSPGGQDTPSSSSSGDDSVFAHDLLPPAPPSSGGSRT
EPHB1, sequence (P54762 whole entry, looked up): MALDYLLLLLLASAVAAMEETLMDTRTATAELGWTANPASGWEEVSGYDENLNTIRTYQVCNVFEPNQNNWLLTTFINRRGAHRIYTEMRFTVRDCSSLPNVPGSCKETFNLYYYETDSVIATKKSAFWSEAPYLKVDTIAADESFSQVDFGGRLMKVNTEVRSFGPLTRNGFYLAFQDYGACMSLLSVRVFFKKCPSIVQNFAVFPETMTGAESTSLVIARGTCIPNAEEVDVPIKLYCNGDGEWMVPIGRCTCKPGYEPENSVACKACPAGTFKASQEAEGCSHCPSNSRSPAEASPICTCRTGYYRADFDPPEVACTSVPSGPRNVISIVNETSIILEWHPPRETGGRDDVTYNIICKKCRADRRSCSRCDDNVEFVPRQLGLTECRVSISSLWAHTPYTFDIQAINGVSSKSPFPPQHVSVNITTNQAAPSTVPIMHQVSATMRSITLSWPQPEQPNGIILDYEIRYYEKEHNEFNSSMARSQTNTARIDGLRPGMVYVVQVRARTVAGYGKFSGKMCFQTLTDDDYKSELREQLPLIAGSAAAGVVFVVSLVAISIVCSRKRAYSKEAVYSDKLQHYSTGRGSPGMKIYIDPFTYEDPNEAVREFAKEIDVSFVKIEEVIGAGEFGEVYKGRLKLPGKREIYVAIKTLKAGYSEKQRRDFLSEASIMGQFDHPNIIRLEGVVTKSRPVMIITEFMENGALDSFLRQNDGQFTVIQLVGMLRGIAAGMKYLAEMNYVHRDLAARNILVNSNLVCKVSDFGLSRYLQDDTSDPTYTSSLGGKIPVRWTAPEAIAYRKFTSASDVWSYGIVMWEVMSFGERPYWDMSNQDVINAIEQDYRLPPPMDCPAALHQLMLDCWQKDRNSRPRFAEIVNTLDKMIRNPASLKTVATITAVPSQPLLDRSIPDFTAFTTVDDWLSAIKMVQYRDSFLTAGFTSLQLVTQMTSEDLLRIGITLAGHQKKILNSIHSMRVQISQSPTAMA

Row | Sequence | SH2 binding enrichment (SHP2-C SH2) | SH2 binding enrichment (c-Src SH2) | SH2 binding enrichment (Grb2 SH2) | phosphorylation enrichment (MERTK) | phosphorylation enrichment (c-Src) | phosphorylation enrichment (Jak2) | phosphorylation enrichment (Hck) | phosphorylation enrichment (FGFR3) | phosphorylation enrichment (Fyn) | phosphorylation enrichment (Fes) | phosphorylation enrichment (Fer (mouse)) | phosphorylation enrichment (c-Abl (mouse)) | phosphorylation enrichment (AncSZ) | phosphorylation enrichment (EPHB1) | phosphorylation enrichment (EPHB2) | phosphorylation enrichment (FGFR1)
1 | STFVPCEIKVQ [L1CAM_Y784_Y784C] | 0.578 | 0.497 | 0.819 | 0.386 | 0.444 | 1.39 | 0.589 | 1.05 | 0.49 | 1.61 | 0.669 | 1.04 | 1.3 | 0.685 | 0.727 | 0.579
2 | SVIVPYEPPEV [TP53_Y220_V217I] | 0.712 | 1.28 | 0.731 | 0.447 | 0.445 | 1.08 | 0.517 | 0.81 | 0.654 | 1.23 | 0.631 | 0.831 | 1.1 | 0.622 | 0.618 | 0.6
3 | SVLVPYEPPEV [TP53_Y220_V217L] | 0.859 | 1.14 | 0.892 | 0.463 | 0.541 | 1.32 | 0.651 | 0.899 | 0.555 | 1.33 | 0.63 | 0.874 | 1.36 | 0.651 | 0.757 | 0.505
4 | SVSNNYIQTLG [CTNND1_Y174] | 0.803 | 0.638 | 0.846 | 0.621 | 0.445 | 0.508 | 0.417 | 0.585 | 0.432 | 0.658 | 0.451 | 0.637 | 0.606 | 0.491 | 0.426 | 0.476
5 | SVTCTYSPALH [TP53_Y126_N131H] | 0.532 | 0.402 | 0.617 | 0.413 | 0.741 | 1.23 | 0.556 | 0.724 | 0.545 | 1.41 | 0.492 | 0.808 | 1.28 | 0.71 | 0.62 | 0.487
6 | SVTCTYSPARN [TP53_Y126_L130R] | 0.613 | 0.371 | 0.793 | 0.449 | 0.555 | 1.06 | 0.56 | 0.756 | 0.489 | 1.37 | 0.554 | 0.84 | 1.22 | 0.576 | 0.654 | 0.53
7 | SVVVPYELPEV [TP53_Y220_P222L] | 0.614 | 1.78 | 0.765 | 0.47 | 0.545 | 1.09 | 0.58 | 0.723 | 0.503 | 1.29 | 0.581 | 0.848 | 1.65 | 0.643 | 0.659 | 0.553
8 | SYSGEYGSGGG [ZG16_Y30_G32S] | 0.794 | 0.495 | 0.782 | 0.53 | 0.545 | 0.727 | 0.534 | 0.512 | 0.417 | 0.696 | 0.462 | 0.596 | 0.763 | 0.454 | 0.429 | 0.419
9 | TDEYEYDELIV [TGM1_Y136] | 0.761 | 0.786 | 1.07 | 0.436 | 0.454 | 0.785 | 0.775 | 0.805 | 0.57 | 1.2 | 0.526 | 0.705 | 1.3 | 0.588 | 0.566 | 0.664
10 | TDVSLYPSGGT [TENM4_Y399] | 0.8 | 0.405 | 0.577 | 0.435 | 0.269 | 0.578 | 0.409 | 0.428 | 0.353 | 0.552 | 0.535 | 0.585 | 0.676 | 0.331 | 0.512 | 0.355
11 | TEAEPYYRSLR [NPHS1_Y1138] | 0.864 | 0.707 | 0.961 | 0.371 | 0.512 | 0.809 | 0.503 | 0.609 | 0.373 | 0.824 | 0.425 | 0.722 | 0.7 | 0.422 | 0.425 | 0.458
12 | TIQSMYGCDVG [HLA-B_Y123_L119I] | 1.01 | 0.581 | 0.909 | 0.559 | 0.517 | 0.794 | 0.502 | 0.602 | 0.427 | 1.04 | 0.48 | 0.68 | 0.886 | 0.502 | 0.48 | 0.579
13 | TMKSHYMELYD [BBS2_Y644_R643H] | 1.84 | 10.3 | 1.22 | 1.34 | 1.2 | 0.864 | 0.953 | 0.64 | 0.69 | 1.01 | 0.453 | 0.693 | 0.807 | 0.971 | 0.683 | 0.568
14 | TNLVPYPRIHF [TUBA1A_Y262] | 0.842 | 0.619 | 0.997 | 0.413 | 0.392 | 0.624 | 0.369 | 0.471 | 0.378 | 0.655 | 0.449 | 0.781 | 0.501 | 1.18 | 0.422 | 0.445
15 | TRVMEYISRLD [CLTCL1_Y1043] | 0.931 | 0.655 | 1.03 | 0.325 | 0.358 | 0.637 | 0.511 | 0.44 | 0.381 | 0.694 | 0.353 | 0.565 | 0.762 | 0.35 | 0.449 | 0.344

Second part, led by results:

Row | SH2 binding enrichment (SHP2-C SH2) | SH2 binding enrichment (c-Src SH2) | SH2 binding enrichment (Grb2 SH2) | Sequence | phosphorylation enrichment (MERTK) | phosphorylation enrichment (c-Src) | phosphorylation enrichment (Jak2) | phosphorylation enrichment (Hck) | phosphorylation enrichment (FGFR3) | phosphorylation enrichment (Fyn) | phosphorylation enrichment (Fes) | phosphorylation enrichment (Fer (mouse)) | phosphorylation enrichment (c-Abl (mouse)) | phosphorylation enrichment (AncSZ) | phosphorylation enrichment (EPHB1) | phosphorylation enrichment (EPHB2) | phosphorylation enrichment (FGFR1)
16 | 0.558 | 0.525 | 0.746 | SSMSDYNPLEK [MYOC_Y479_I477S] | 0.425 | 0.439 | 0.756 | 0.525 | 0.581 | 0.47 | 0.876 | 0.558 | 0.657 | 0.87 | 0.501 | 0.515 | 0.506
17 | 0.591 | 0.466 | 0.692 | SSNLFYRWLTA [CNGA3_Y169_YF] | 0.532 | 0.398 | 0.846 | 0.557 | 0.744 | 0.473 | 0.982 | 0.493 | 0.665 | 1.09 | 0.594 | 0.526 | 0.621
18 | 0.551 | 0.355 | 0.752 | STEAIYWRYSK [SH3PXD2B_Y42_R43W] | 1.34 | 3.47 | 1.26 | 3.66 | 1.53 | 4.84 | 1.28 | 0.502 | 8.71 | 1.33 | 1.44 | 1.39 | 1.54
19 | 0.899 | 0.634 | 0.876 | STILLYHIMAW [GPR143_Y157] | 4.05 | 1.01 | 1.89 | 1.44 | 2.88 | 0.766 | 1.64 | 1.02 | 1.23 | 1.59 | 4.83 | 2.88 | 2.8
20 | 0.469 | 0.444 | 0.723 | SVTCTYSPGLN [TP53_Y126_A129G] | 0.454 | 0.612 | 1.46 | 0.595 | 0.998 | 0.525 | 1.57 | 0.609 | 1.05 | 1.42 | 0.761 | 0.686 | 0.511
21 | 0.608 | 0.419 | 0.717 | SYCYRYRCAAR [SUMF1_Y344] | 0.549 | 0.54 | 0.728 | 0.386 | 0.448 | 0.484 | 0.651 | 0.37 | 0.776 | 0.789 | 0.309 | 0.512 | 0.538
22 | 0.838 | 0.786 | 1.07 | TACNPYKPPGP | 0.393 | 0.46 | 0.521 | 0.384 | 0.437 | 0.469 | 0.717 | 0.449 | 1.14 | 0.605 | 0.733 | 0.417 | 0.354
23 | 0.9 | 1 | 1.45 | TCRPPYFHRNC [HGD_Y333_F329C_YF] | 0.758 | 0.314 | 0.914 | 0.548 | 0.568 | 0.4 | 1.06 | 0.334 | 0.878 | 1.05 | 0.215 | 0.686 | 0.255
24 | 0.662 | 0.693 | 1.07 | TDLAFYLVRKG [ASL_Y376_YF] | 0.506 | 0.361 | 0.946 | 0.67 | 0.988 | 0.545 | 1.27 | 0.541 | 0.611 | 1.4 | 0.65 | 0.725 | 0.497
25 | 0.538 | 0.466 | 0.924 | TEAGNYKLCFD [TMED1_Y103_D102N] | 0.453 | 0.424 | 1.17 | 0.549 | 0.749 | 0.505 | 1.05 | 0.492 | 0.785 | 1.12 | 0.53 | 0.577 | 0.627
26 | 1.2 | 0.492 | 0.879 | TESNNYIFKTL [FAM83B_Y637_YF] | 0.664 | 0.642 | 0.926 | 0.643 | 0.82 | 0.528 | 1.12 | 0.597 | 0.762 | 1.26 | 0.604 | 1.06 | 0.645
27 | 0.478 | 0.66 | 0.772 | TFEYRYLEDQD [CNOT3_Y746_R750Q] | 0.44 | 0.54 | 0.916 | 0.637 | 0.823 | 0.438 | 1.15 | 0.518 | 0.673 | 1.22 | 0.566 | 0.553 | 0.77
28 | 0.859 | 0.703 | 1.06 | TFSPPYYHRNC [HGD_Y333_R330S] | 0.526 | 0.535 | 0.83 | 0.531 | 0.654 | 0.5 | 0.813 | 0.497 | 0.612 | 0.822 | 0.45 | 0.52 | 0.565
29 | 0.968 | 0.479 | 0.636 | TIQRMYGCDVG [HLA-A_Y123_I121R] | 0.448 | 0.594 | 0.789 | 0.45 | 0.598 | 0.442 | 1.05 | 0.46 | 0.775 | 0.761 | 0.504 | 0.57 | 0.56
30 | 0.851 | 0.594 | 1.05 | TLKDVCDDGKY [RPS6KA3_Y483_Y483C] | 0.437 | 0.507 | 0.841 | 0.622 | 0.594 | 0.434 | 1.2 | 0.456 | 0.664 | 0.93 | 0.569 | 0.624 | 0.53
31 | 0.634 | 4.89 | 0.945 | TMKSRYMELFD [BBS2_Y644_YF] | 0.42 | 0.418 | 0.71 | 0.48 | 0.667 | 0.447 | 0.914 | 0.382 | 0.613 | 0.765 | 0.523 | 0.437 | 0.482
32 | 1.17 | 0.931 | 0.934 | TQKLAYMELQQ [CENPF_Y700] | 0.527 | 0.509 | 0.794 | 0.52 | 0.629 | 0.455 | 0.907 | 0.513 | 0.94 | 0.776 | 0.482 | 0.454 | 0.596
33 | 0.494 | 0.513 | 0.87 | TRSFDYTEGGD [FGF7_Y58_M59T_YF] | 0.503 | 0.431 | 0.975 | 0.501 | 0.625 | 0.513 | 1.19 | 0.572 | 0.659 | 1.23 | 0.569 | 0.519 | 0.52
